Data taken from the nanobody polyreactivity screen of Harvey et al. (2022).

Assay: yeast display, Sf9 membrane polyspecificity reagent, FACS + sequencing; frameworks hold sequencing errors
Outline: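 In a synthetic yeast display library (Saccharomyces cerevisiae BJ5465), nanobody expression was induced with galactose for 36–48 hours. FACS gates were set low and high (top ~1%) using anti-HA fluorescence for expression and streptavidin fluorescence for binding of the Sf9 membrane reagent. Each polyreactivity label is drawn from the gate of origin.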

Row | Sequence | polyreactivity (PSR sort gate)
1 | QVQLVESGGGLVQAGGSLRLSCAASGSIFTGNTMGSDRQAPGKERELVAAISRSGGSTYYADSVKGRFTISRDNAKNTVYLQMNSLKPEDTAVYYCAAYRTHGPPRAIRFDYWGQGTQVTVSS | high polyreactivity
2 | QVQLVESGGRLVQAGGSLRLSCAASGRIFRGYAMGWYRQEPGKERELVAAISQSGSSTYYADSVKGRFTISRDNAKNTVYLQMNSLKPEDTAVYYSAVIYVKHFGYWGLGTQVTVSS | high polyreactivity
3 | QVQLVESGGGLFQAGGSLRLSCAASGFTIFLNAMGWYRQAPGKERELVAAITVSGSSTYYADSVKGRFTISRDNAKNTVYLQMNSLKPEDTAVYYCNAEIYSPYYTYDYWGQGTQVTVSS | low polyreactivity
4 | QLQLVESVGGLDQAGGSLRLSCAASRSNFGPYAIGWYRQAPGKERELVAAITWSGDSTYYADSVKGRFTISRDNEKNTVYLQMNSLKPEDTAVYYCAAETFIWGKGTQVTVSS | low polyreactivity
5 | QVQLVESGGGLVQAGGSLRLSCAASVSTFFRYAKRWYRQAPGKERELVAAISKRGGSTSYADSVKGRFTISRDNAKNTVYLQMNSLKPEDTAVYYCATVYWLFARYDYWGQGTQVTVSS | high polyreactivity
6 | QVQLVESGGGLVQAGGSLRLSCAASGYIFGYYVMGWYRQAPGKERELVAAISDSDITYYADSVKGRFTISRDNAKNTVYLQMNSLKPEDTAVYYCNKDHSLYEHNYWGQGTLVTVSS | low polyreactivity
7 | QVQLVESGGGLVQAGGSLRLSCAASGSTFVVNVMGWYRQAPGNEMELVAAITYRSGSTYYADSVKGRFTISRDNEKNTVYLQMNSLNPEDSAVYYCAAGYYSRYYEAFEYYYWGQGTQVTVSS | high polyreactivity
8 | QVQLVESGGGLVQAGGSIRLSCAASGIIFYYYAMGWYRQAPGKERELVAGISYSGGSTYADSVKGRFTISRDNAKNTVYLQMNSLKPEDTAVYYCAADYDYGGHWYDYWGQGTQVTVSS | low polyreactivity
9 | QVQLVESGGGLVQAGGILRLSCAASGLTFYGYAMGWYRQAPGKERELVAAITRGGGSTYYADSVKGRFTISRDNAKNTVYLQMNSLKPDDTAVYYCAADQTGWGDTYYYWGQGTQVTVSS | low polyreactivity
10 | QVQLVESGGGLVQAGGSLRLSCAASGRIISINAMVWYRQAPGKERELVAAINSGGSTHYADSVKGRFTISRDNAKNTVYLQMNSLKPEDTAVYYCAARKTVSYFRVRTFDYWGQGTQVTVSS | low polyreactivity
11 | QVQLVESGGGLVQAGGRLRLSCAASGRTFRRYAMGWYRPAPGTERELVAAISWSGGSTYYADSVKGRFTISRDNAKNSVYLQMNSLKPEDTAVYYCGAETRYGYGYWGQGTQVTVSS | high polyreactivity
12 | QVQLVESGGGLVQAGGSLRLSCAASGFTFVRYAMGWYRQAPGKERELVAAISSSGSSTYYADSVKGRFTISRDHEKNTVYLQMNSLKPEDTAVYYCNARAGRGEDYWGQGTQVTVSS | low polyreactivity
13 | QVQHVESGGGLVHPGGILRLSCAASGLTFGRNAMGWYRQAPGKERELVAAISRSGGRTSYADSVKGRLTISRDNAKNTVYLQMNSLKPEDTAVYYCAARSPIYRTTYDYWGQGTQVTVSS | high polyreactivity
14 | QVQLVESGGGLVQAGGSLRLSCAASGSIFRGYAMGWYRQAPGKERELVAAITKIGASTYYADSVKGRFTISRDNAKNTVYLQMYSLKPEDTAVYYCNKDRGITPYRAYWGMDYWGQGTQVTVSS | low polyreactivity
15 | QVQHVESGGGLVQAGGSLRLSCAASGRTFVTYAMGWYRQAPGKERELVAAISKRGSRTYYADSVKGRFTISRDNAKNTVYLQMNSLKPEDTAVYYCNADPYRTSYDYWGQGTQVTVSS | high polyreactivity
16 | QVQLVESGGGLVQAGGSLRLSCAASGNIFPYNAMGWYRQAPGKERELVASISSGGSTNYADSVKGRFTISRDNAKNTVYLQMNSLKPEDTAVYYCAKDQSVLSRGGTYDYWGQGTQVTVSS | low polyreactivity
17 | QVQLVESGGGIVQAGGSLRLSCPASGFIGVNGMGWYIQAPGKERELVAAISSGGSTNYADSVKGRFTMSRDNAKNTVYLQMNSLKPEDTAVYYCAKDFLLDSFYHTYRYRYDYWGQGTQVTVSS | low polyreactivity
